Measurements from patent US20240124563A1 (NANJING ZAIMING PHARMACEUTICAL, published 2024).

Key:
[1] = biological target: T1, human MSLN-R1-his protein (human, UniProt Q13421 296-390); test: ELISA, antibody 1 nM
T1 construct: MSLN-R1 = Glu296-Thr390; also called hMSLN-R1-his; not shown: histidine tag
T1 chain: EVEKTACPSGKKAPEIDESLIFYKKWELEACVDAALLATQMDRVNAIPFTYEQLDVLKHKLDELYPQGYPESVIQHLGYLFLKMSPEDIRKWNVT

[2] = biological target: T2, human MSLN-R3-his protein (human, UniProt Q13421 487-598); test: ELISA, antibody 1 nM
T2 construct: MSLN-R3 = Met487-Ser598; also called hMSLN-R3-his; not shown: histidine tag

[3] = biological target: T3, human MSLN-FL-his protein (human, UniProt Q13421 296-580); test: ELISA, antibody 1 nM
T3 construct: also called hMSLN-FL-his; human MSLN full-length protein; not shown: histidine tag

[4] = biological target: T1, human MSLN-R1-his protein; test: ELISA, antibody 1 nM
[5] = biological target: T4, human MSLN-R2-his protein (human, UniProt Q13421 391-486); test: ELISA, antibody 1 nM
T4 construct: MSLN-R2 = Ser391-Asn486; also called hMSLN-R2-his; not shown: histidine tag

[6] = biological target: T2, human MSLN-R3-his protein; test: ELISA, antibody 1 nM; remark: listed apart in the source
[7] = biological target: T5, human MSLN-R3-3 polypeptide (purchased from GL Biochem, Cat. No. 406676) (human); test: ELISA, antibody 1 nM
T5 construct: Printed as Val539-Val588; also called hMSLN-R3-3
T5 peptide: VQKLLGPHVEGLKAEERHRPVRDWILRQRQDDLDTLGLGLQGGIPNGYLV

[8] = biological target: T4, human MSLN-R2-his protein; test: ELISA, antibody 10 nM
[9] = biological target: T2, human MSLN-R3-his protein; test: ELISA, antibody 10 nM
[10] = biological target: T1, human MSLN-R1-his protein; test: ELISA, antibody 0.1 nM
[11] = biological target: T4, human MSLN-R2-his protein; test: ELISA, antibody 100 nM
[12] = biological target: T2, human MSLN-R3-his protein; test: ELISA, antibody 0.1 nM
[13] = biological target: T2, human MSLN-R3-his protein; test: ELISA, antibody 100 nM
[14] = biological target: T1, human MSLN-R1-his protein; test: ELISA, antibody 0.01 nM
[15] = biological target: T4, human MSLN-R2-his protein; test: ELISA, antibody 0.01 nM
[16] = biological target: T2, human MSLN-R3-his protein; test: ELISA, antibody 0.01 nM
[17] = biological target: T1, human MSLN-R1-his protein; test: ELISA, antibody 0.001 nM
[18] = biological target: T4, human MSLN-R2-his protein; test: ELISA, antibody 0.001 nM
[19] = biological target: T2, human MSLN-R3-his protein; test: ELISA, antibody 0.001 nM
[20] = biological target: T1, human MSLN-R1-his protein; test: ELISA, antibody 0.0001 nM
[21] = biological target: T2, human MSLN-R3-his protein; test: ELISA, antibody 0.0001 nM
[22] = biological target: T1, human MSLN-R1-his protein; test: ELISA, antibody 0 nM (blank)
[23] = biological target: T4, human MSLN-R2-his protein; test: ELISA, antibody 0 nM (blank)
[24] = biological target: T2, human MSLN-R3-his protein; test: ELISA, antibody 0 nM (blank)
[25] = biological target: T6, human MSLN-FL-his protein (human, UniProt Q13421 296-580); test: competitive ELISA on MSLN-FL-His; other antibody: NB148-13 (3.m1)
T6 construct: Made in HEK293E cells, purified on nickel column; also called hMSLN-FL-his; not shown: histidine tag

[26] = biological target: T6, human MSLN-FL-his protein; test: competitive ELISA on MSLN-FL-His; other antibody: NB148-25 (3.m2)
[27] = biological target: T6, human MSLN-FL-his protein; test: competitive ELISA on MSLN-FL-His; other antibody: NB149-34 (3.m8)
[28] = biological target: T6, human MSLN-FL-his protein; test: competitive ELISA on MSLN-FL-His; other antibody: NB149-70 (3.m9)
[29] = biological target: T6, human MSLN-FL-his protein; test: competitive ELISA on MSLN-FL-His; other antibody: Tab107 (C) (1.m4)
[30] = biological target: T6, human MSLN-FL-his protein; test: competitive ELISA on MSLN-FL-His; other antibody: Tab108 (R3) (3.m14)

T4 sequence (Q13421 other isoform, or with tags, fused parts or gaps): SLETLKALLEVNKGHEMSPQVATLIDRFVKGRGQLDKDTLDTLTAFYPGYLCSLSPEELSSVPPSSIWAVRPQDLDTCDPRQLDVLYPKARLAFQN
T2 sequence (Q13421 495-606): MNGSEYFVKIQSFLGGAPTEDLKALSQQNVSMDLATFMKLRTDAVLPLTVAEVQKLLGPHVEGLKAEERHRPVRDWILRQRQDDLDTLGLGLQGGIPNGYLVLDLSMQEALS

- OD450 nm [1]: 0.05
- OD450 nm [2]: 0.05
- OD450 nm [3]: 1.74
- OD450 nm [4]: 0.05
- OD450 nm [5]: 0.05
- OD450 nm [6]: 0.05
- OD450 nm [7]: 0.07
- OD450 nm [8]: 0.05
- OD450 nm [9]: 0.05
- OD450 nm [10]: 0.05
- OD450 nm [11]: 0.09
- OD450 nm [12]: 0.05
- OD450 nm [13]: 0.09
- OD450 nm [14]: 0.06
- OD450 nm [15]: 0.04
- OD450 nm [16]: 0.04
- OD450 nm [17]: 0.05
- OD450 nm [18]: 0.05
- OD450 nm [19]: 0.05
- OD450 nm [20]: 0.04
- OD450 nm [21]: 0.05
- OD450 nm [22]: 0.05
- OD450 nm [23]: 0.05
- OD450 nm [24]: 0.05
- inhibition rate [25]: 38%
- inhibition rate [26]: 23%
- inhibition rate [27]: -8%
- inhibition rate [28]: -10%
- inhibition rate [29]: 65%
- inhibition rate [30]: 21%
B1: Tab107 (YP3, hIgG1) (antibody, V domains shown)
VH: QEQLVESGGGLVQPGASLTLTCTASGIDFSRYYMCWVRQAPGKGLEGIACIYIGGSGSTYYASWAKGRFTISKASSTTVTLQMTSLTAADTATYFCARGTNLNYIFRLWGPGTLVTVSS
VL: DVVMTQTPSPVSAAVGGTVTIKCQASQSINNGLAWYQQKPGQPPRLLIYSASNLESGVPSRFKGSGSGTEFTLTISDLECDDAATYYCQCIWDGNSYVNAFGGGTEVVVRT
notes: also called YP3 human IgG1 antibody
